In publication PMC9482650, “Quantitative fragmentomics allow affinity mapping of interactomes” (Nature Communications, 2022):
Blank lines part the entries; values can stand above or below the binder they belong to.

Legend:
Assay in all cases: holdup assay
Parameters in all cases: key: below the threshold = too weak to quantify, mostly under pKd 3.1 to 4
Settings in all cases: plain residues with an end cap or a label only (N-terminal biotin on a linker: ttds)
GRIP2_4, Q9C0E4 = target: GRIP2_4, Q9C0E4
Chain of GRIP2_4, Q9C0E4 (Q9C0E4 446-548): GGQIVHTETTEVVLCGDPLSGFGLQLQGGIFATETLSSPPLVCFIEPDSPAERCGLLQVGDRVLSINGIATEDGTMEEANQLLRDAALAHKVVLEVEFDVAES

GRIP1_3, Q9Y3R0 = target: T1, GRIP1_3, Q9Y3R0
T1 sequence (Q9Y3R0 247-346, limits assumed, looked up): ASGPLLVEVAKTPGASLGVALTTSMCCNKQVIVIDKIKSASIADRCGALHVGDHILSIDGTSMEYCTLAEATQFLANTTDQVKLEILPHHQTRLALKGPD

PDZRN3_1, Q9UPQ7 = target: T2, PDZRN3_1, Q9UPQ7
T2 sequence (Q9UPQ7 244-349, limits assumed, looked up): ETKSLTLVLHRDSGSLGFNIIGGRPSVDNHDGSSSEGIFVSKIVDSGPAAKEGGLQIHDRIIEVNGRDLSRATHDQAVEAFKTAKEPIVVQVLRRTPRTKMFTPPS

RHPN1, Q8TCX5 = target: T3, RHPN1, Q8TCX5
T3 sequence (Q8TCX5 508-602, limits assumed, looked up): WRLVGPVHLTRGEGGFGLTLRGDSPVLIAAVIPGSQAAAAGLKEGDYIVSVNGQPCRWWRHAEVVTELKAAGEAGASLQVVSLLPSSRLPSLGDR

PICK1, Q9NRD5 = target: PICK1, Q9NRD5
Chain of PICK1, Q9NRD5 (Q9NRD5 17-115): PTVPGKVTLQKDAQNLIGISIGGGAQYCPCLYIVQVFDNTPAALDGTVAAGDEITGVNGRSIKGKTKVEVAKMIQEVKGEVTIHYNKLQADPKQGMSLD

DLG1_2, Q12959 = target: DLG1_2, Q12959
Chain of DLG1_2, Q12959 (Q12959 314-412): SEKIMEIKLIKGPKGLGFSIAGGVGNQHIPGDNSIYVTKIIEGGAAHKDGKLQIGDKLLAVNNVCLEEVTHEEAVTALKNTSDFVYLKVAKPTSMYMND

ARHGEF12, Q9NZN5-2 = target: ARHGEF12, Q9NZN5-2
Chain of ARHGEF12, Q9NZN5-2 (Q9NZN5 other isoform, or with tags, fused parts or gaps): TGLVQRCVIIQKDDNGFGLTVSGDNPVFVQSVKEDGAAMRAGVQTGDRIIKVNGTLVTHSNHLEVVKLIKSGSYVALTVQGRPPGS

Inadl_5, Q8NI35 = target: Inadl_5, Q8NI35
Chain of Inadl_5, Q8NI35 (Q8NI35 673-780): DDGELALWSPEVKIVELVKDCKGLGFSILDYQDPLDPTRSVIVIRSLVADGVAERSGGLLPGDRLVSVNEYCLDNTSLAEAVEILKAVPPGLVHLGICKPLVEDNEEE

DLG4_1, P78352 = target: DLG4_1, P78352
Chain of DLG4_1, P78352 (P78352 62-152): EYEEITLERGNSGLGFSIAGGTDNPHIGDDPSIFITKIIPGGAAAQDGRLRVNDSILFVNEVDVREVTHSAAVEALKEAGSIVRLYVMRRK

PCLO, Q9Y6V0 = target: T4, PCLO, Q9Y6V0
T4 sequence (Q9Y6V0 4491-4600, limits assumed, looked up): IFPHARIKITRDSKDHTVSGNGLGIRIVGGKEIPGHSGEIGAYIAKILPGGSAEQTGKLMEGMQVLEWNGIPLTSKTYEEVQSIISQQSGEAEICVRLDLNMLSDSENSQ

NHERF3_4, Q5T2W1 = target: T5, NHERF3_4, Q5T2W1
T5 sequence (Q5T2W1 373-468, limits assumed, looked up): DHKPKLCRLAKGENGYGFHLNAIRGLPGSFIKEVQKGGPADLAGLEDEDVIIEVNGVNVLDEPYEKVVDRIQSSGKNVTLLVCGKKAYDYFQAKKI

Inadl_2, Q8NI35 = target: Inadl_2, Q8NI35
Chain of Inadl_2, Q8NI35 (Q8NI35 238-335): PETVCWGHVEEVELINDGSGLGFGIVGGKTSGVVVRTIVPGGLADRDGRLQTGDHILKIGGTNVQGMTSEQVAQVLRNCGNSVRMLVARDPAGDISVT

LIN7A, O14910 = target: T6, LIN7A, O14910
T6 sequence (O14910 103-200, limits assumed, looked up): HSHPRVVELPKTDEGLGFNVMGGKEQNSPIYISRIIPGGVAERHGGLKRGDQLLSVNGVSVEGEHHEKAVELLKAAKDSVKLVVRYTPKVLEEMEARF

PARD3_3, Q8TEW0 = target: PARD3_3, Q8TEW0
Chain of PARD3_3, Q8TEW0 (Q8TEW0 582-685): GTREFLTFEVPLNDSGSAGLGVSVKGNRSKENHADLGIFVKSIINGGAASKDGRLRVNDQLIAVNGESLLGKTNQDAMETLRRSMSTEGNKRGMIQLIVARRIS

HTRA4, P83105 = target: T7, HTRA4, P83105
T7 sequence (P83105 378-476, limits assumed, looked up): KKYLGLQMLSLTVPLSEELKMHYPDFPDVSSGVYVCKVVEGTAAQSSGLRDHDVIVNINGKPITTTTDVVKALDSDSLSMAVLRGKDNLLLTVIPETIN

MPP7, Q5T2T1 = target: T8, MPP7, Q5T2T1
T8 sequence (Q5T2T1 134-230, limits assumed, looked up): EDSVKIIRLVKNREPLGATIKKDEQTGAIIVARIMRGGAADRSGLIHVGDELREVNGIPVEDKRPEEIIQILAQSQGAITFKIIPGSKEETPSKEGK

DFNB31_1, Q9P202 = target: T9, DFNB31_1, Q9P202
T9 sequence (Q9P202 135-233, limits assumed, looked up): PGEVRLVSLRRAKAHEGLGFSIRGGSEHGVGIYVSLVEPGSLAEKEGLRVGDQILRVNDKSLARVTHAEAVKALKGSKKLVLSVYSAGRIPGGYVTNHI

MAST2, Q6P0Q8 = target: MAST2, Q6P0Q8
Chain of MAST2, Q6P0Q8 (Q6P0Q8 1099-1202): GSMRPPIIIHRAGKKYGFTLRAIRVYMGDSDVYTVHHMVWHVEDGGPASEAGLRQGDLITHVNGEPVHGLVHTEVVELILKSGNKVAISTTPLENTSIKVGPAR

RADIL, Q96JH8 = target: T10, RADIL, Q96JH8
T10 sequence (Q96JH8 971-1071, limits assumed, looked up): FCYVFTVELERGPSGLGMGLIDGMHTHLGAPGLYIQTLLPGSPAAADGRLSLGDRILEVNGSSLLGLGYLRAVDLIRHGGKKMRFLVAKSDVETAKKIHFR

MAGI1_2, Q96QZ7 = target: MAGI1_2, Q96QZ7
Chain of MAGI1_2, Q96QZ7 (Q96QZ7 456-580): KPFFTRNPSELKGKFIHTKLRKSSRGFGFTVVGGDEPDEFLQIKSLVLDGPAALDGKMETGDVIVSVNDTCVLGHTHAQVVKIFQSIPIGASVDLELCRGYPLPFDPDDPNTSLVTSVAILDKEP

LRRC7, Q96NW7 = target: T11, LRRC7, Q96NW7
T11 sequence (Q96NW7 1440-1537, limits assumed, looked up): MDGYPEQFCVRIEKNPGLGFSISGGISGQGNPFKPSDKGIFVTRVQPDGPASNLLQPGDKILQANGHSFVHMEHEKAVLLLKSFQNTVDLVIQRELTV

LAP2, Q96RT1 = target: LAP2, Q96RT1
Chain of LAP2, Q96RT1 (Q96RT1 other isoform, or with tags, fused parts or gaps): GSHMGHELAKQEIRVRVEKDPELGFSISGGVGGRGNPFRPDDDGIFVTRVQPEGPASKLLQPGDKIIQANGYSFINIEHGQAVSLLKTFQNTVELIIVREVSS

IL16_1, Q14005 = target: IL16_1, Q14005
Chain of IL16_1, Q14005 (Q14005 210-306): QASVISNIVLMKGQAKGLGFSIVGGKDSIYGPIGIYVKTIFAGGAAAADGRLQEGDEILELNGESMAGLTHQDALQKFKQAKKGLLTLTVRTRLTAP

NHERF3_1, Q5T2W1 = target: T12, NHERF3_1, Q5T2W1
T12 sequence (Q5T2W1 4-100, limits assumed, looked up): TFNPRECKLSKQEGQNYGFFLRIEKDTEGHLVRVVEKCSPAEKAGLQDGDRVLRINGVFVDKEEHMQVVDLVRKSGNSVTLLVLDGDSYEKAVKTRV

pKd (GRIP2_4, Q9C0E4): below the threshold
pKd (GRIP1_3, Q9Y3R0): below the threshold
pKd (PDZRN3_1, Q9UPQ7): 4.55
pKd (RHPN1, Q8TCX5): 4.94
pKd (PICK1, Q9NRD5): below the threshold
pKd (DLG1_2, Q12959): 4.37
pKd (ARHGEF12, Q9NZN5-2): 4.33
pKd (Inadl_5, Q8NI35): below the threshold
pKd (DLG4_1, P78352): 3.5
pKd (PCLO, Q9Y6V0): below the threshold
pKd (NHERF3_4, Q5T2W1): below the threshold
pKd (Inadl_2, Q8NI35): below the threshold
pKd (LIN7A, O14910): below the threshold
pKd (PARD3_3, Q8TEW0): 3.86
pKd (HTRA4, P83105): below the threshold
pKd (MPP7, Q5T2T1): below the threshold
pKd (DFNB31_1, Q9P202): 5.03
pKd (MAST2, Q6P0Q8): 5.97
pKd (RADIL, Q96JH8): below the threshold
pKd (MAGI1_2, Q96QZ7): below the threshold
pKd (LRRC7, Q96NW7): below the threshold
pKd (LAP2, Q96RT1): 3.86
pKd (IL16_1, Q14005): 3.49
pKd (NHERF3_1, Q5T2W1): 4.52
B1: MAP4, P27816 (peptide)
chain: LDSQIQETSI

pKd (GRIP2_4, Q9C0E4): 3.55
pKd (GRIP1_3, Q9Y3R0): below the threshold
pKd (PDZRN3_1, Q9UPQ7): below the threshold
pKd (RHPN1, Q8TCX5): 4.09
pKd (PICK1, Q9NRD5): below the threshold
pKd (DLG1_2, Q12959): 4.29
pKd (ARHGEF12, Q9NZN5-2): below the threshold
pKd (Inadl_5, Q8NI35): below the threshold
pKd (DLG4_1, P78352): 3.98
pKd (PCLO, Q9Y6V0): below the threshold
pKd (NHERF3_4, Q5T2W1): 3.54
pKd (Inadl_2, Q8NI35): below the threshold
pKd (LIN7A, O14910): below the threshold
pKd (PARD3_3, Q8TEW0): below the threshold
pKd (HTRA4, P83105): below the threshold
pKd (MPP7, Q5T2T1): below the threshold
pKd (DFNB31_1, Q9P202): below the threshold
pKd (MAST2, Q6P0Q8): 3.92
pKd (RADIL, Q96JH8): 3.63
pKd (MAGI1_2, Q96QZ7): below the threshold
pKd (LRRC7, Q96NW7): below the threshold
pKd (LAP2, Q96RT1): 3.48
pKd (IL16_1, Q14005): below the threshold
pKd (NHERF3_1, Q5T2W1): 3.74
B2: MAS1, P04201 (peptide)
chain: CNTVTVETVV

pKd (GRIP2_4, Q9C0E4): below the threshold
pKd (GRIP1_3, Q9Y3R0): below the threshold
pKd (PDZRN3_1, Q9UPQ7): 4.01
pKd (RHPN1, Q8TCX5): 4.12
pKd (PICK1, Q9NRD5): below the threshold
pKd (DLG1_2, Q12959): below the threshold
pKd (ARHGEF12, Q9NZN5-2): 3.52
pKd (Inadl_5, Q8NI35): below the threshold
pKd (DLG4_1, P78352): below the threshold
pKd (PCLO, Q9Y6V0): below the threshold
pKd (NHERF3_4, Q5T2W1): 4.08
pKd (Inadl_2, Q8NI35): below the threshold
pKd (LIN7A, O14910): below the threshold
pKd (PARD3_3, Q8TEW0): 3.89
pKd (HTRA4, P83105): below the threshold
pKd (MPP7, Q5T2T1): below the threshold
pKd (DFNB31_1, Q9P202): 3.79
pKd (MAST2, Q6P0Q8): 5.93
pKd (RADIL, Q96JH8): below the threshold
pKd (MAGI1_2, Q96QZ7): below the threshold
pKd (LRRC7, Q96NW7): below the threshold
pKd (LAP2, Q96RT1): below the threshold
pKd (IL16_1, Q14005): below the threshold
pKd (NHERF3_1, Q5T2W1): 4.78
B3: CFTR, P13569 (peptide)
chain: TEEEVQDTRL
